Data reported in the DeepSol protein solubility set.

Assay: soluble on expression in E. coli; label from the status in PepcDB or PDB records
In the case of “MGSDKIHHHHHHMFERDNREDEAAELVTLAAKLKALMKPDVARRVEPDLEALLEAEGLAMRPGPRPMIDTDLVQELRQAMITCSKVKLRYRNRRTRQANERIVHPYAFLHGHRNYLIAWHEHPKANKVALFALPHIEAVDATGEPFVRDPGFQLQDFAARSFGLFQDEPFQTAWKFAPDAADDAAEFLFHPSQAQERLPDGSLIVRFVAASELEMAWHLYAWGDKVEVLEPQKLAEMVNPGRVAWPALP”, the “soluble on expression in E. coli” value is reported as “not soluble”.
With “MAELRVLVAVKRVIDYAVKIRVKPDRTGVVTDGVKHSMNPFCEIAVEEAVRLKEKKLVKEVIAVSCGPAQCQETIRTALAMGADRGIHVEVPPAEAERLGPLQVARVLAKLAEKEKVDLVLLGKQAIDDDCNQTGQMTAGFLDWPQGTFASQVTLEGDKLKVERAIDGGLETLRLKLPAVVTADLRLNEPRYATLPNIMKAKKKKIEVIKPGDLGVDLTSKLSVISVEDPPQRTAGVKVETTEDLVAKLKEIGRI” the “soluble on expression in E. coli” value was “soluble”.
In the case of “ELHPRTGRLVSLSACGRTARRQQPGQEFNHGLVLSREPLRDGRVFTVRIDRKVNSWSGSIEIGVTALDPSVLDFPSSATGLKGGSWVVSGCSVLRDGRSVLEEYGQDLDQLGEGDRVGVERTVAGELRLWVNGRDCGVAATGLPPRVWAVVDLYGKCTQITVL”, the “soluble on expression in E. coli” value is reported as “soluble”.
For “MECGLGGAGQPAVEAEGVWKRLGGRWVLKDVSLTVPRGSVYGVVGPNGAGKTTLFRTLLGLYRADRGRVALLGEPVERAGGSLFRRVAYLPEDGEPYRNMTGHEFLRLYASIYGVEDLEGYLEEASRLSGLGGRLGERVRSYSKGMRRRLLVAAMLALKPSLAVLDEPTAGLDPVYSVGIRRLLKEYSERHGVTVLLSSHNMYEVESVCSEITMISSGRIVYSGSPGEAVRRTGASSLEEAYVALVTGGGGES”, the “soluble on expression in E. coli” value was “soluble”.
With “MVGGEDMAKKKAPSAKEGEKQQGFKEIIPEVTEKLVEQARKEVARERWVTPHKLAQKMGVKVSIARRVLRILEEEGVLVLFTRNRRSPLYLEHHHHHH” the “soluble on expression in E. coli” value was “not soluble”.
With “MKKIILIGSGGSGKSTLARQLGNKLNIKVHHLDALFWKPNWEGVPREEQITVQNNLIKDEKWIIDGNYGGTMGIRLNAADTIIFLDIHRTICVYRAFKRIVKYRNKTRPDMGAGCEERFDLQFFKWIWEYPNAKRPTILKELEQLPEEKKVIVLKSPNEVRKFLEHI” the “soluble on expression in E. coli” value was “soluble”.
For “MYGEGDFYTIKSKRDYEFYLEADRLALGKNCKKPRLIGDDIWKFQRLLRQAEYYSNCQNSLLHKLYLKYILFRFHRMSIRLGFSIPINVFGPGLCIAHRGTIVVNKGARVGENCRIHACTNIGSGRDNIFLAPKIGNGVYIGPGAKIFGSVEIADNIAIGANSVVNRSFYERGISIAGVPAKKISNKGSDGMVIAATKTVSVPVSQETILEHHHHHH”, the “soluble on expression in E. coli” value was “soluble”.
With “MSCIAAIAAAEGTGSRMAYVSLPRRLVTLLMISTVMVSCSAEGLVPPAEVDGTTRVSAIRSSRQQGYSAPSGAVNQVERAGQGADYPSTMSQPMPEPYASQDPLLQSPQAGQGYSTLDSQHQARMAASGHTNMPAQPMQSQTMQSQTMQAQTMQAQTMPGQQLASNQNAEGEGGVNMDSMLGVEPVRGLAEEQDADIAEGASAQPVVDGIGTDNPVAVSPPRRQQGASQSRLIPPPPVGSSSRRQPVEEVAMLMPNDPMAGGPMQSNRSMPPGVMPSSEVACRSELRRLGVAFRDVARIADGPTCGIDYPIELSGLASGVAIRPAVKLNCQVTLAFAKWVKFELVPSSRFRYLSGVGRITPMGGYSCRKMNSRSSNPWSEHARGNAIDIGTITLKNGKEIDVRSKSFFAFREKALLKAVRSDSCKYFSTVLGPGSDPNHWNHFHFDLRTRKSGYRHCD” the “soluble on expression in E. coli” value was “not soluble”.
For “MKETIIVVHERPDIYDPVFIEGLPGIGLVGKLAAEHLIQELKAKKFAELYSPHFMHQVLIRKGSIVELMKNEFYYWKSPDDEHRDLIIVTGDTQVPPTDSYGHFEVAGKMLDFVQEFGTREIITMGGYQVPELQGEPRVLAAVTHPDLISYYQEKLKDCKVNVMWREDEGGAIVGAAGLLLGIGKLRGMFGISLLGESLGYIVDAKAAKAVLTAVAKILGLEIDMTALEERAKETEEILRKVEEMQRTIMEQQLPRPTHEEEDRGYL”, the “soluble on expression in E. coli” value was “not soluble”.
In the case of “MTMFGKIFSKKTPKTDIKSNGEALNASEIEQFIKDTLSHYISDNFPQGVLAVCQQLSITQKKKITIKLLMPFVCQGELDLLAQTLSENLARTVNFEIDLAIKPVRQFSLGNDKNKAGQEGMLQGKVANIIAIASGKGGVGKSTTTVNLAYALMCEGARVGILDADIYGPSIPSMLGLKNEKPSSSDGKLMTPVDAKGLSAMSIGFLVDEADATVWRGPMASSAFNQLLNETDWPELDYLLIDMPPGTGDIQLTLAQKVPVAAAVIVTTPQDIALIDAVKGIAMFDKVKVPVLGIVENMSYHLCENCGHKSHIFGEAGGEHMAEDHETKLLGQLPLDITIRQDADFGESDIIENSAGEIANHYRKIARNVSAQLFLQCDTASPLTATVAHKALEHHHHHH”, the “soluble on expression in E. coli” value is reported as “soluble”.
For “MAHHHHHHMFRRLSVCVPFATTARFYTPSEELKKLYASDFERAQFPANIVPSDSVTFAKFLYKAVEPKGSFDTILKDFQTIAAAIPKLPVFWQRTVVVSEVSEFKSLSAPTTFTLEWMQSNGMLDLLPDVAEVYETYVNAKMKRVTAKIYVAAGKEQDRALVDKAKKVAEQVVKDNQQFAGYTLVPKVLVDRSIVEGFAVDVQGTYVNEAVGRKKETQASGEVDYTTIPPPRLSKTTWEDNIETEVLRKYLDSLSLYDAEELKSGV”, the “soluble on expression in E. coli” value was “soluble”.
With “MGVKRKKMGKVAGFTEWTAEDLEAFRARWPIGTAQRLALELYQWTGARCVDVIRLGPQMVGRDGVLTYVQQKTGNPAHVPWTCPAFGLEEQRADLMRCLPVGSPVYMLTEYGKPRTQKGVSQWFSAAAREAGLESRTAHGLRKYRMNALAEHGASVLVMQSWVGHTTLLEVQEYTRRADRRRVISGGHPVKRDPAGAAAALEHHHHHH” the “soluble on expression in E. coli” value was “soluble”.
With “MSLENYWVDERTLVVSGDFFGVSTGLLGGWKRVRHAFNHTVSEEFHSMEPAEYLRKVARGYGLKSYFGLLTSVPIEKLSVKGCGEVTVFATAGVMNPNERVGTINIIAVFECRMSRAAMLNAIITATEAKTKALLEEGHNFTGTNTDAVVVLCTQKGGYHRYCGPASEVGQKLWRCAGEAVKDSLARWEGHHHHHH” the “soluble on expression in E. coli” value was “not soluble”.
In the case of “MSKRKAEEAPAPKLASIFTKKVKPAEEDNNQKSWKFVCWNVAGLRACVKKSDFKEVLAEEPDLVFLGETKCKEWPPEMEETFKNYTKTLVVSTEKNGGYAGVGLLSKCAPMKVHKGIGDPEFDTAGRLIIAEFSKFYFIGAYVPNSGAKLVNLEKRGRWEKLLTEKMKEMDEKKPVIYGGDLNVAHNEIDLKNPESNRNKTAGFTDQERGWFSEMLELGFTDTFRAMHPDEKKYSFWSYLANSRQKDVGWRLDYYVVSNRIMNKVKRSDIMSSVMGSDHAPVVMQIDF”, the “soluble on expression in E. coli” value is reported as “soluble”.
With “AALSNLSIRTTAHRFMEEMSMYAQAPVALAARDRLNMLYLDVVQTNSTMRRPIGSTLPLHNSSMGRACLAATPKQERYFLLEAIQKREPENWIEIKEKLDIAFDQYAEYGYCLSLGEWQQGINSVAVPLMSTKHGLYVFNCGAPSYALSTEKLIEDIGPRLKYMVNSIQDALTESL” the “soluble on expression in E. coli” value was “not soluble”.
With “MSLSLENFGNFLTLDEKHSFIKKYFKEFYTKDFKLFASKDKHYRTRAELSFYHENDTLFYAMFDPKSKKKYIIEYLDFADEKICAFMPRLLEYLRQDNKLKEKLFGVEFLTTKQELSITLLYHKNIEDIKSNLENLSNILHINLIARSKGKKLIFKTENLRQTLNIQDRKIFYEFNNDCFIQPNTAINEKMITWVCEILNTQKRMDLLELYCGYGNFTLALAPFFFKILATEISKSNINFALKNCELNNTTNIHFARLSSEELSLAIKKEREFFRLKDIRLDDFNFSHVLVDPPRAGLDKSVIDLIKKYGNIIYISCNPMTLKENLKELSLTHRVEEFALFDQFVNTPHLECGVFLSKVEGHHHHHH” the “soluble on expression in E. coli” value was “soluble”.
With “MADPKGFLTTPREEWPRRPAGERVRDWDEVYVPGALLPIVGRQADRCMDCGVPFCHEACPLGNLIPEWNDLVSRSDWRAASERLHATNNFPEFTGRLCPAPCEAGCVLAINQPAVTIKNVECAIADTAWEEGFVPPLPPERLSGRTVAVIGSGPAGLAAAQQLTRAGHTVAVYERDDRIGGLLRYGIPAFKMEKRHLERRVGQMRAEGTRFRTSAAVGRDVDAAALRTRYDAVVIATGATAWRELTVPGRELAGVHQAMEYLPLANRVCEGDLERSPLSAAGRHVVVVGGGDTGADCLGTAVREGAASVTQLDIYARPGAERDERAEPWPTYPRLYRLSAAHEEARDLRSAPAADADARLFAASTLRFTGDERGHVRALHLVGVDTGRRPLPGSERSLPADLVLLALGFSGPDRHDGLVDGLGLDMEPRGTITRDRGFATNVPGVFAAGDAARGQSLVVWAIAEGRAVAAAVDRHLSGGSTRLPAPVGPYDRPMTALEHHHHHH” the “soluble on expression in E. coli” value was “not soluble”.
With “MSLSSLGAPAISAASFLQDLIHRYGEGDSPTLQQLKALLNHLDVGVGRGNVTQHVQGHRNLSTCFSSGDLFTAHNFSEQSRIGSSELQEFCPTILQQLDSRACTSENQENEENEGHHHHHH” the “soluble on expression in E. coli” value was “soluble”.
With “MAHHHHHHMSHEGAPQGEYVAILDAGSQYGKVIDRKVRELHVETSILSLNTPAEKLRNDANLKGIIISGGPSSVNDATSLAYDRAIFSMGKPVLGICYGMQMLTELYGGEVCRGKVREDGQDNIQVDTSSPIFAGLESTEAVLLTHGDSITAVGSELKVIARSSAGIISAVQHRSRPLFGVQFHPEVELTVSGKTIFKNFLQLCRCNFSFTMEDREAVALRLIRERTSGGQKVLCLASGGVDSTVCAVLLLKALGPERVVCIHIDHGFMRLNESVQAVEALNAAGVRVHLVKAQEDFAQASTEMTAKGSRAAYTTNKLREVTDPEEKRNIIGNTFMTVCDRVIKELQLDVENLLLAQGTLRPDLIESGSKYASVNAAAIKTHHNDTAVVRLLRDAGRIIEPLCDYHKDEVRELGARLGIPCRLLERQPFPGPGLAIRTLCTDGTPFRDGNFEDTQTTVKRVCMGADASSAEVAALAQKATLSACILPVRTVGVQGDGRTYAYAAALSMQTFPTAEQWATLIQLAKEIPKTAHAVNRVVFMFGPPQSESPSTVTPTYLTTDVLEKLRVADDKVNSILMKHQLVRSLSQVPIILIPIGFDKAGGYSVVVRTFLTNDFMTGIPATPGTAFMPLAVLEEIFNEVQKLEFVGRVMYDLTAKPPGTTEWE” the “soluble on expression in E. coli” value was “not soluble”.
With “ADLLSKFDPLIAEREALLATGVRDPYAIVMDKVLSPTEAMINGRKTILLGTYNYMGMTFDPDVIAAGKQALDEFGSGTTGSRVLNGTYQGHKACEDALKEFYGTEHAIVFSTGYQANLGMISTLAGKGDYIILDADSHASIYDGCWLGDAEIVRFRHNSVEDLDKRLGRLPAEAGKLVVLEGVYSMMGDIAPLQEMVAVSKKHGAMILVDEAHGMGFFGEHGRGVFEEAGVEADVDFVVGTFSKSVGTVGGFCVSNHPKFEVLRLVCRPYVFTASLPPSVVATAATSIRKLMHAGDKRAHLWKNSRRLHQGLRDMGYKLGTETAQSAIIAVILTDMAQAVALWQGLLEAGLYVNTARPPATPAGMFLLRCSLCAEHSDEQVEQILGMFESAGRATGVIPKLAAALEHHHHHH” the “soluble on expression in E. coli” value was “soluble”.
In the case of “MTPDLKTSPPPATLFSEDAEAIAKYLDESAKNGRDSGKNKSTQIRRFYDELVGWQERIGTDEQKFRDYAAFIHMLNAKAAYAQGRNLVTREFVQWLRDCIKQIDGPRTLNHFRLHFEAMIGFLKAIRG”, the “soluble on expression in E. coli” value is reported as “not soluble”.
For “SLDSEKVKVLSIEEDNQAEILKELGLPANASYYRIKRVRYSEDTPFLVHITHLPKKLVKEPLSKDLTAYASVYERVRKDFSVDLFSLASVETNEIVFPEDAELLNLLQLSFREPAVKQVKHSYLADGSVAEYIISYKHWKYFKTKIEVEAE”, the “soluble on expression in E. coli” value was “soluble”.
